From the RNAGym collection of RNA variant scans (doi:10.7554/elife.80360) come the findings set out here.

Sequences and labels used below:
B1: CPEB3 Ribozyme (parent)
chain: GGGGGCCACAGCAGAAGCGUUCACGUCGCGGCCCCUGUCAGAUUCUGGUGAAUCUGCGAAUUCUGCUGU

The variants in the data set derive from B1. In words: self-cleavage, relative activity (ratio to wild type); higher = more cleavage; co-transcriptional.
Turning to GGGAGCCACAGCAGAAGCGUUCACGUAGCGGCCCCUGUCAGAUUCUGGUGAAUCUGCGAAUUCUGCUGU, the self-cleavage came to 0.212.

GGGAGCCACAGCAGAAGCGUUCACGUUGCGGCCCCUGUCAGAUUCUGGUGAAUCUGCGAAUUCUGCUGU: the self-cleavage was found to be 0.19. Turning to GGGAGACACAGCAGAAGCGUUCACGUCGCGGCCCCUGUCAGAUUCUGGUGAAUCUGCGAAUUCUGCUGU, the self-cleavage was determined as 0.0589. Take GGGAGCCAGAGCAGAAGCGUUCACGUCGCGGCCCCUGUCAGAUUCUGGUGAAUCUGCGAAUUCUGCUGU: the self-cleavage was 1.05. With GGGAGCCAAAGCAGAAGCGUUCACGUCGCGGCCCCUGUCAGAUUCUGGUGAAUCUGCGAAUUCUGCUGU, the self-cleavage came to 1.03. For the variant GGGAGCCAUAGCAGAAGCGUUCACGUCGCGGCCCCUGUCAGAUUCUGGUGAAUCUGCGAAUUCUGCUGU, the self-cleavage amounted to 0.953. On to GGGAGCCACAGCAGAAGCGUUCACGUCGCGGCCCCUGUCCGAUUCUGGUGAAUCUGCGAAUUCUGCUGU, for which the self-cleavage was determined as 0.216. Turning to GGGAGCCACAGCAGAAGCGUUUACGUCGCGGCCCCUGUCAGAUUCUGGUGAAUCUGCGAAUUCUGCUGU, the self-cleavage came to 0.157. The value for GGGAGCCACAGCAGAAGCGUUGACGUCGCGGCCCCUGUCAGAUUCUGGUGAAUCUGCGAAUUCUGCUGU was 0.165; that for GGGAGCCACAGCAGAAGCGUUCACGUCGUGGCCCCUGUCAGAUUCUGGUGAAUCUGCGAAUUCUGCUGU was 0.216. Consider GGGAGCCACAGCAGAAGCGUUCACGUCGGGGCCCCUGUCAGAUUCUGGUGAAUCUGCGAAUUCUGCUGU, for which the self-cleavage was 0.103. The value for GGGAGCCACAGCAGAAGCGUUCUCGUCGCGGCCCCUGUCAGAUUCUGGUGAAUCUGCGAAUUCUGCUGU was 0.886; that for GGGAGCCACAGCAGAAGCGUUCGCGUCGCGGCCCCUGUCAGAUUCUGGUGAAUCUGCGAAUUCUGCUGU was 0.827; that for GGGAGCCACAGCAGAAGCGUUCACGUCGCGGCCCCUGUCAGAUUCUGGUGAAUCUGCGCAUUCUGCUGU was 0.32. The value for GGGAGCCACAGCAGAAGCGUUCACGUCGCGGCCCCUGUCAGAUUCUGGUGAAUCUGCGGAUUCUGCUGU was 0.749; that for GGGAGCCACAGCAGAAGCGUUCACGUCGCGGCCCCUGUCAGAUUCUGGUGAAUCUGCGUAUUCUGCUGU was 0.283. Under GGGAGCCACAGCAGAAGCGUUCACGUCGCGGCCCCUGUCAGCUUCUGGUGAAUCUGCGAAUUCUGCUGU stands 0.473. For GGGAGCCACAGCAGAAGCGUUCACGUCGCGGCCCCUGUCAGGUUCUGGUGAAUCUGCGAAUUCUGCUGU, the self-cleavage is 0.806. The value for GGGAGCCACAGCAGAAGCGUUCACGUCGCGGCCUCUGUCAGAUUCUGGUGAAUCUGCGAAUUCUGCUGU was 0.627. Under GGGAGCCACAGCAGAAGCGUUCACGUCGCGGCCACUGUCAGAUUCUGGUGAAUCUGCGAAUUCUGCUGU stands 0.31.

For the variant GGGAGCCACAGCAGAAGCGUUCACGUCGCGGCCCCUGUCAGAUUCUGGUGAAUCUGCGAGUUCUGCUGU, the self-cleavage turned out to be 0.475. Under GGGAGCCACAGCAGAAGCGUUCACGUCGCGGCCCCUGUCAGAUUCUGGUGAAUCUGCGAUUUCUGCUGU stands 0.264. In the case of GGGAGCCACAGCAGAAGCGUUCACGUCGCGGCCCCUGUCAGAUUCUGGUGAAUCUGCGACUUCUGCUGU, the self-cleavage is 0.217. Under GGUGGCCACAGCAGAAGCGUUCACGUCGCGGCCCCUGUCAGAUUCUGGUGAAUCUGCGAAUUCUGCAGU stands 0.406; under GGGAGCCACAGCAGAAGCGUUCACGUCGCGGACCCUGUCAGAUUCUGGUGAAUCUGCGAAUUCUGCUGU, 0.216; under GGGAGCCACAACAGAAGCGUUCACGUCGCGGCCCCUGUCAGAUUCUGGUGAAUCUGCGAAUUCUGCUGU, 0.672. The value for GGGAGCCACAUCAGAAGCGUUCACGUCGCGGCCCCUGUCAGAUUCUGGUGAAUCUGCGAAUUCUGCUGU was 0.629; that for GGGAGCCACACCAGAAGCGUUCACGUCGCGGCCCCUGUCAGAUUCUGGUGAAUCUGCGAAUUCUGCUGU was 0.631. The value for GGGAGCCACAGCACAAGCGUUCACGUCGCGGCCCCUGUCAGAUUCUGGUGAAUCUGCGAAUUCUGCUGU was 0.305; that for GGGAGCCACAGCAUAAGCGUUCACGUCGCGGCCCCUGUCAGAUUCUGGUGAAUCUGCGAAUUCUGCUGU was 0.519. As for GGGAGCCACAGCAGAAGGGUUCACGUCGCGGCCCCUGUCAGAUUCUGGUGAAUCUGCGAAUUCUGCUGU, the self-cleavage is 0.158.

Consider GGGAGCCACAGCAGAAGUGUUCACGUCGCGGCCCCUGUCAGAUUCUGGUGAAUCUGCGAAUUCUGCUGU, for which the self-cleavage amounted to 0.481. On to GGGAGCCACAGCAGAAGAGUUCACGUCGCGGCCCCUGUCAGAUUCUGGUGAAUCUGCGAAUUCUGCUGU, for which the self-cleavage came to 0.147. In the case of GGGAGCCACAGCAGAGGCGUUCACGUCGCGGCCCCUGUCAGAUUCUGGUGAAUCUGCGAAUUCUGCUGU, the self-cleavage came to 0.737. As to GGGAGCCACAGCAGAUGCGUUCACGUCGCGGCCCCUGUCAGAUUCUGGUGAAUCUGCGAAUUCUGCUGU, the self-cleavage was found to be 0.459. In the case of GGGAGCCACAGCAGAAGCGUUCACGUCGCGGCCCCUGUCAGAUUAUGGUGAAUCUGCGAAUUCUGCUGU, the self-cleavage came to 0.808. Consider GGGAGCCACAGCAGAAGCGUUCACGUCGCGGCCCCUGUCAGAUUUUGGUGAAUCUGCGAAUUCUGCUGU, for which the self-cleavage came to 0.909. The value for GGGAGCCUCAGCAGAAGCGUUCACGUCGCGGCCCCUGUCAGAUUCUGGUGAAUCUGCGAAUUCUGCUGU was 0.86; that for GGGAGCCCCAGCAGAAGCGUUCACGUCGCGGCCCCUGUCAGAUUCUGGUGAAUCUGCGAAUUCUGCUGU was 0.897.

On to GGGAGCCGCAGCAGAAGCGUUCACGUCGCGGCCCCUGUCAGAUUCUGGUGAAUCUGCGAAUUCUGCUGU, for which the self-cleavage was determined as 0.698. The value for GGGAGCCACAGCAGAAGCGUUCACGUCGCGGCCCCUGUCAGAUUCUGGUGAUUCUGCGAAUUCUGCUGU was 0.882; that for GGGAGCCACAGCAGAAGCCUUCACGUCGCGGCCCCUGUCAGAUUCUGGUGAAUCUGCGAAUUCUGCUGU was 0.11.

GGGAGCCACAGCAGAAGCUUUCACGUCGCGGCCCCUGUCAGAUUCUGGUGAAUCUGCGAAUUCUGCUGU: the self-cleavage was 0.178. For the variant GGGAGCCACAGCAGAAGCGUUCACGUCGCGGCCCCUGUCAGAUUCUGGUGAAUGUGCGAAUUCUGCUGU, the self-cleavage was determined as 0.388.

On to GGGAGCCACAGCUGAAGCGUUCACGUCGCGGCCCCUGUCAGAUUCUGGUGAAUCUGCGAAUUCUGCUGU, for which the self-cleavage was 0.66. Take GGGAGCCACAGCCGAAGCGUUCACGUCGCGGCCCCUGUCAGAUUCUGGUGAAUCUGCGAAUUCUGCUGU: the self-cleavage was determined as 0.588. The value for GGUGGCCACAGCAGAAGCGUUCACGUCGCGGCCCCUGUCAGAUUCUGGUGAAUCUGCGAAUUCUGCUGA was 0.301; that for GGUGGCCACAGCAGAAGCGUUCACGUCGCGGCCCCUGUCAGAUUCUGGUGAAUCUGCGAAUUCUGCUGC was 0.46. For GGUGGCCACAGCAGAAGCGUUCACGUCGCGGCCCCUGUCAGAUUCUGGUGAAUCUGCGAAUUCUGCUGG, the self-cleavage came out at 0.283. Under GGGAGCCACAGCAGAAGCGUUCACGUCGCGGCGCCUGUCAGAUUCUGGUGAAUCUGCGAAUUCUGCUGU stands 0.68; under GGGAGCCACAGCAGAAGCGUUCAAGUCGCGGCCCCUGUCAGAUUCUGGUGAAUCUGCGAAUUCUGCUGU, 0.295.

Consider GGGAGCCACAGCAGAAGCGUUCAGGUCGCGGCCCCUGUCAGAUUCUGGUGAAUCUGCGAAUUCUGCUGU, for which the self-cleavage stood at 0.177. In the case of GGGAGCCACAGCAGAAGCGUUCAUGUCGCGGCCCCUGUCAGAUUCUGGUGAAUCUGCGAAUUCUGCUGU, the self-cleavage was 0.352. In the case of GGGAGCCACAGCAGAAGCGUUCACGUCGCGGCCCCUGUUAGAUUCUGGUGAAUCUGCGAAUUCUGCUGU, the self-cleavage was 0.544.

As to GGGAGCCACAGCAGAAGCGUUCACGUCGCGGCCCCUGUAAGAUUCUGGUGAAUCUGCGAAUUCUGCUGU, the self-cleavage is 0.521. Under GGGAGCCACAGCAGAAGCGUUCACGUCGCGGCCCAUGUCAGAUUCUGGUGAAUCUGCGAAUUCUGCUGU stands 0.175; under GGGAGCCACAGCAGAAGCGUUCACGUCGCGGCCCGUGUCAGAUUCUGGUGAAUCUGCGAAUUCUGCUGU, 0.162; under GGGAGCCACCGCAGAAGCGUUCACGUCGCGGCCCCUGUCAGAUUCUGGUGAAUCUGCGAAUUCUGCUGU, 0.968. Take GGGAGCCACGGCAGAAGCGUUCACGUCGCGGCCCCUGUCAGAUUCUGGUGAAUCUGCGAAUUCUGCUGU: the self-cleavage came out at 0.868. Under GGGAGCCACAGCAGAAGCGUUCACGUCGCGGCCCCUGUCAGAUUCUGGUGAAUCUGCGAAUUCUGAUGU stands 0.743. Under GGGAGCCACAGCAGAAGCGUUCACGUCGCGGCCCCUGUCAGAUUCUGGUGAAUCUGCGAAUUCUGUUGU stands 0.852; under GGGAGCCACAGCAGGAGCGUUCACGUCGCGGCCCCUGUCAGAUUCUGGUGAAUCUGCGAAUUCUGCUGU, 0.93. Regarding GGGAGCCACAGCAGCAGCGUUCACGUCGCGGCCCCUGUCAGAUUCUGGUGAAUCUGCGAAUUCUGCUGU, the self-cleavage worked out at 0.329. As for GGGAGCCACAGCAGUAGCGUUCACGUCGCGGCCCCUGUCAGAUUCUGGUGAAUCUGCGAAUUCUGCUGU, the self-cleavage stood at 0.455. The value for GGGAGCCACAGCAGAAGCGUUCACGUCGCGGCCCCUGUCAGAUUCUGGUGUAUCUGCGAAUUCUGCUGU was 0.804; that for GGGAGCCACAGAAGAAGCGUUCACGUCGCGGCCCCUGUCAGAUUCUGGUGAAUCUGCGAAUUCUGCUGU was 0.477. For GGGAGCCACAGGAGAAGCGUUCACGUCGCGGCCCCUGUCAGAUUCUGGUGAAUCUGCGAAUUCUGCUGU, the self-cleavage was 0.5.

As to GGGAGCCACAGCAGAAGCGUUCACGUCGCGGCCCCUGUCAGAUUCUGGUGAAUCUGCGAAUUUUGCUGU, the self-cleavage came out at 0.84.

On to GGGAGCUACAGCAGAAGCGUUCACGUCGCGGCCCCUGUCAGAUUCUGGUGAAUCUGCGAAUUCUGCUGU, for which the self-cleavage worked out at 0.458. For the variant GGGAGCAACAGCAGAAGCGUUCACGUCGCGGCCCCUGUCAGAUUCUGGUGAAUCUGCGAAUUCUGCUGU, the self-cleavage was 0.0893.

With GGGACCCACAGCAGAAGCGUUCACGUCGCGGCCCCUGUCAGAUUCUGGUGAAUCUGCGAAUUCUGCUGU, the self-cleavage is 0.113. Under GGGAACCACAGCAGAAGCGUUCACGUCGCGGCCCCUGUCAGAUUCUGGUGAAUCUGCGAAUUCUGCUGU stands 0.103; under GGGAGCCACAGCAGAAACGUUCACGUCGCGGCCCCUGUCAGAUUCUGGUGAAUCUGCGAAUUCUGCUGU, 0.175. The value for GGGAGCCACAGCAGAACCGUUCACGUCGCGGCCCCUGUCAGAUUCUGGUGAAUCUGCGAAUUCUGCUGU was 0.0965. As to GGGAGCCACAGCAGAAGCGUUCACGUCGCGGCCCCUGUCAGAUUCUGGUGAAUCUGAGAAUUCUGCUGU, the self-cleavage was determined as 0.245. Under GGGAGCCACAGCAGAAGCGUUCACGUCGCGGCCCCUGUCAGAUUCUGGUGAAUCUGGGAAUUCUGCUGU stands 0.217. Under GGGAGCCACAGCAGAAGCGUUCACGUCGCGGCCCCUGUCAGAUUCUGGUGAAUCUGUGAAUUCUGCUGU stands 0.223; under GGUGGCCACAGCAGAAGCGUUCACGUCGCGGCCCCUGUCAGAUUCUGGUGAAUCUGCGAAUUCGGCUGU, 0.138.
